In patent US11618913B2, “Method for preparing xyloglucan-oligosaccharides” (TECHNISCHE UNIVERSITÄT MÜNCHEN, priority 2017, dated 2023):
“Also recorded” adds a separate entry of the source.

Legend:
Assay type in all cases: biochemical
[1] = Hydrolysis of 20% (wt/vol) TKP/dTKP, XGOS release by HPAEC-PAD; conditions: 20% (wt/vol) dTKP/TKP, 60° C.
Description: For XGOS release 20% (wt/vol) 8 g of TKP or dTKP was dissolved in 40 ml demineralized water at 60° C. The enzyme was added at the desired concentrations, 3%, 0.65%, 0.05%, 0.03% or 0.006% (wt/wt TKP) referred to the substrate load. Incubation of the reaction mixture was carried out on a rotary shaker at 125 rpm and 60° C. The hydrolysis process was monitored by taking samples at different time points. The samples were centrifuged and the supernatant boiled for 5 min at 95° C. to denature residual proteins. For analysis, samples of the supernatant were withdrawn, tenfold diluted with double deionized water and measured by HPAEC-PAD.
For the analysis by HPAEC-PAD an ICS 3000 Dionex chromatography system from Thermo Fisher Scientific (Waltham, USA) equipped with a CarboPac™ PA1 column (4×250 mm) and a PA1-precolumn (4×50 mm) was used. The system was set up using PEEK tubing (0.25 mm i.d.), a GM-4 gradient mixer (2 mm), an ED amperometry cell with 0.25 microL channel volume, a pH-Ag/AgCl reference electrode, 0.002″ gasket and disposable gold electrodes. Runs were performed at a column temperature of 30° C. with an injection volume of 25 microL and a flow rate of 1 mL/min. […]
Quantification was performed using a XGOS standard mixture from Megazyme with 0.4 g/L, 0.2 g/L, 0.1 g/L, and 0.05 g/L.

[2] = Specific enzyme activity, reducing sugars by DNSA assay; conditions: dockerin domain deleted
Description: Enzyme activity: the release of micromol reducing sugars from arabinoxylan per mg of enzyme was determined with the DNSA assay.
Specific enzyme activity was determined by using a model substrate such as barley-beta-glucan (Megazyme). Endoglucanase activity is defined as the generation of reducing sugars from the model substrate. One unit of enzyme activity is defined as the amount of reducing sugars in micromol generated per mg of enzyme in one minute at 60° C. To define the enzyme profile and temperature and pH optimum the endoglucanases (50 ng/reaction) were incubated for 30 minutes at a temperature range from 50 to 80° C. in presence of 1% (wt/vol) barley-beta-glucan solved in citrate buffer with varying pH (range 4.0-8.0) (solution A: 0.2 M citric acid, 0.1 M NaCl; solution B: 0.4 M Na2HPO4, 0.1 M NaCl). Reducing sugars were measured by 3,5-dinitrosalicylic acid (DNSA) method: 50 microL sample were mixed with 75 microL DNSA-solution (10 g/L DNSA, 200 g/L K^+-Na^+-Tartrate, 10 g/L NaOH, 0.5 g/L Na2SO4, 2 g/L Phenol) in microtiter plates, incubated for 5 minutes at 95° C., cooled on ice and the absorption determined at 540 nm. For calibration, glucose solutions between 0 and 2 mg/mL were used.

[3] = Ki determination (end product inhibition) on Azo-Xyloglucan in presence of xyloglucan oligosaccharides; conditions: inhibition by xyloglucan oligosaccharides; non-competitive inhibition model; substrate 1-20 g/l
Description: To evaluate the suitability of SEQ ID NOs 1-4 for TKP hydrolysis, the Ki value of SEQ ID NO 3 was determined. Enzymatic activity was measured on Azo-Xyloglucan (Megazyme) according to the manufacturer's instruction. Substrate concentrations of 1-20 g/I were chosen and enzymatic activity was measured in the presence of increasing concentrations of xyloglucan oligosaccharides. Mode of Inhibition was assessed using a Lineweaver-Burke plot.

B1: SEQ ID NO 2: wildtype glycoside hydrolase family 5 endoglucanase from Herbivorax saccincola DSM101079 (protein, listed as Herbivorax saccincola)
chain: STAYTGMRDITSLELVNEMRIGWNLGNTLDAIGGETNWGNPKTTKEMIDKVKEMGFNTVRFPVTWGGHVGPAPDYKIDEGWLNRVEEVVNYALSNDMYAIINLHHENSWLVPTYAQEKRSTEQLVKIWEQVATRFKDYGDYLIFETMNEPRVENSPYEWSGGTPENRHVINNFNLAAVNTIRSTGGNNAKRHIMIPAHAASAIDIALNDLVIPNNDDRIIISVHNYSPYFFAMDVNGTASWGSDYDKASLAAELEALYNRFIKNGRAVVIGEFGSINKNNLSDRIRHAEFFAKEARKRGITVIWWDNGYNEGGKAESYALLDRRNLTWYHPEIAEALVRGAGGVPEPTPTPTPEPTPSPGEDILYGDLNGDGIINSIDYNLLNRYILEVIDDLPVENYSKVADLNGDGVINSNDAVLLGRFILEIVDKFPVDK
With B1 the “hydrolysis of TKP to DP7-DP9 after 24 h” value ([1]; 0.03% (wt/wt) enzyme) was “Complete hydrolysis; also recorded: completely”.

B2: SEQ ID NO 3: endoglucanase obtained from SEQ ID NO: 1 by deleting the dockerin domain (protein)
chain: AKITENYQFDSRIRLNSIGFIPNHSKKATIAANCSTFYVVKEDGTIVYTGTATSMFDNDTKETVYIADFSSVNEEGTYYLAVPGVGKSVNFKIAMNVYEDAFKTAMLGMYLLRCGTSVSATYNGIHYSHGPCHTNDAYLDYINGQHTKKDSTKGWHDAGDYNKYVVNAGITVGSMFLAWEHFKDQLEPVALEIPEKNNSIPDFLDELKYEIDWILTMQYPDGSGRVAHKVSTRNFGGFIMPENEHDERFFVPWSSAATADFVAMTAMAARIFRPYDPQYAEKCINAAKVSYEFLKNNPANVFANQSGFSTGEYATVSDADDRLWAAAEMWETLGDEEYLRDFENRAAQFSKKIEADFDWDNVANLGMFTYLLSERPGKNPALVQSIKDSLLSTADSIVRTSQNHGYGRTLGTTYYWGCNGTVVRQTMILQVANKISPNNDYVNAALDAISHVFGRNYYNRSYVTGLGINPPMNPHDRRSGADGIWEPWPGYLVGGGWPGPKDWVDIQDSYQTNEIAINWNAALIYALAGFVNYN
modifications: Recombinat polypeptide
For B2, the “enzyme activity increase in comparison to SEQ ID NO 1” value ([2]; SEQ ID NO 1 activity set to 100%) was 4 fold, the “degree of hydrolysis after 24 h” value ([1]; 0.006% (wt/wt) enzyme) was “over 80%” and the Ki [3] was 16.8 mM.

B3: SEQ ID NO 4: endoglucanase obtained from SEQ ID NO: 2 by deleting the dockerin domain (protein)
chain: STAYTGMRDITSLELVNEMRIGWNLGNTLDAIGGETNWGNPKTTKEMIDKVKEMGFNTVRFPVTWGGHVGPAPDYKIDEGWLNRVEEVVNYALSNDMYAIINLHHENSWLVPTYAQEKRSTEQLVKIWEQVATRFKDYGDYLIFETMNEPRVENSPYEWSGGTPENRHVINNFNLAAVNTIRSTGGNNAKRHIMIPAHAASAIDIALNDLVIPNNDDRIIISVHNYSPYFFAMDVNGTASWGSDYDKASLAAELEALYNRFIKNGRAVVIGEFGSINKNNLSDRIRHAEFFAKEARKRGITVIWWDNGYNEGGKAESYALLDRRNLTWYHPEIAEALVRGAGGVPEPTPTPTPEPTPSPG
With B3 the “enzyme activity increase in comparison to wildtype SEQ ID NO 2” value ([2]; SEQ ID NO 2 activity set to 100%) was 7 fold.
